Test results reported in patent publication US20030208037A1 (CYTOVIA, published 2003).
*: point of attachment. TFB = 2,3,4,5-tetrafluorobenzoyl; PFB = pentafluorobenzoyl; Cbz = O=C(OCc1ccccc1)*; R110 = rhodamine 110

T1: recombinant caspase-3 (UniProt P42574 29-277, limits assumed)
T1 sequence (looked up): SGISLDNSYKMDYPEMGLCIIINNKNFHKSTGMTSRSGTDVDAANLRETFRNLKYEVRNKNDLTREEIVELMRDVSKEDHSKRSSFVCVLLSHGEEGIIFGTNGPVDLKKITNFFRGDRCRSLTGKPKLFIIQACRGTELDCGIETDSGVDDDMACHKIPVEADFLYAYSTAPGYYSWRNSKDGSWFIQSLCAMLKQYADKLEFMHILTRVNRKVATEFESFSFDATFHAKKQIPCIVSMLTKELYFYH


Biological target: T1, recombinant caspase-3
Test: cell-based or functional assay

Binder | increase in fluorescence on cleavage of the substrate (cell-free enzyme assay) [fold] | increase in fluorescence on cleavage of the substrate (cell-free enzyme assay, 10 uM substrate, 3 hours at 37 C) [fold]
Cbz-DEVD-{R110-PFB} [N-(Z-Asp-Glu-Val-Asp)-N'-pentafluorobenzoyl-Rhodamine 110] | > 10 | 
Ac-DEVD-{R110-TFB} [N-(Ac-DEVD)-N'-(2,3,4,5-tetrafluorobenzoyl)-R110] |  | ~50
